± gives the half width of the 95% confidence interval.

This note sets out measurements from the supplement of paper PMC12764529.

Data set [1] can be described thus: folding stability dG unfold (combined trypsin and chymotrypsin); higher = more stable. In short, it runs like this:
(§1)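 Unfolding free energy was derived, per protease or combined, by relating Bayesian-fitted K50 values from sequencing counts to a sequence-predicted unfolded-state K50 and a shared folded-state K50. The underlying digests exposed cysteine-free mini-proteins under 80 residues, in a PA-tagged cDNA display construct, to trypsin and chymotrypsin at 11 threefold-diluted concentrations and to a no-protease condition. A filter kept only designs with AlphaFold2 dimer inter-PAE above 15.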

Data set [2] can be described thus: folding stability dG unfold from trypsin proteolysis; higher = more stable. In short, it runs like this: as §1
Data set [3] in a line: folding stability dG unfold from chymotrypsin proteolysis; higher = more stable. In short, it runs like this: as §1

On to “SAGGSAGGSAGGLDLSVPGLTSVTPVLLEDPRGYVTTVYTTTYPDGTVLTHTTVLPASLLSAGGSAGGSAGG [r7_214_JUSTAS]”, for which the “folding stability dG unfold” value in data set [1] worked out at 1.16 ± 0.024 kcal/mol; in data set [2] it was 1.09 ± 0.025 kcal/mol; in data set [3], 1.16 ± 0.031 kcal/mol.
The matching figures for “SAGGSAGGSAGGLEIVKEVIKNPLKNEPVEVLILIEKKEEPIEKTDLFEIPVKITIIPLSAGGSAGGSAGGS [r10_459_JUSTAS]”: 0.812 ± 0.19 kcal/mol, 1.29 ± 0.11 kcal/mol and 0.152 ± 0.16 kcal/mol.
For the sequence “SAGGSAGGSAGGLKDALENGYVMIDFEIYNPPNGEPIGEITIMVKVPKPEPDEDGNWQLVSAGGSAGGSAGG [r7_959_TrROS]”, the “folding stability dG unfold” value was 1.26 ± 0.16 kcal/mol in data set [1], 1.34 ± 0.086 kcal/mol in data set [2] and 0.941 ± 0.06 kcal/mol in data set [3].
For “SAGGSAGGSAGGLKPGQKVAVFVKVKVKLYRDPATNELTEEVEIEDVFVVDAETKELLLSAGGSAGGSAGGS [r10_248_TrROS_Hall]” the same measures were 2.45 ± 0.12 kcal/mol, 1.98 ± 0.13 kcal/mol and 2.64 ± 0.071 kcal/mol.
For “SAGGSAGGSAGGLLEIELPSRRILVELKLELKDGKLVKLEIKVKYEGREPEPLTSPEYKSAGGSAGGSAGGS [r10_1043_TrMRF]” the same measures were 1.76 ± 0.44 kcal/mol, 1.71 ± 0.14 kcal/mol and 1.94 ± 0.17 kcal/mol.
As to “SAGGSAGGSAGGLPEDDNYVRVKITFTIMMMEFDPKNGKMQMFPISIEIEIYIPPGAELSAGGSAGGSAGGS [r10_133_TrROS]”, the “folding stability dG unfold” value in data set [1] is 3.26 ± 0.22 kcal/mol; in data set [2], 2.36 ± 0.12 kcal/mol; in data set [3], 3.6 ± 0.25 kcal/mol.
The matching figures for “SAGGSAGGSAGGLPNIPGFVLLETYSETFNVPLPENRTATITKTLILHPNALLESYSINPSAGGSAGGSAGG [r7_945_TrMRF]”: -0.251 ± 0.27 kcal/mol, -0.198 ± 0.27 kcal/mol and -0.353 ± 0.23 kcal/mol.
As for “SAGGSAGGSAGGLVPPDAVIPTETTAEEPVYVIDPVTGELTPIGPGVVRRKITRRVPRPSAGGSAGGSAGGS [r10_1115_JUSTAS]”, the “folding stability dG unfold” value in data set [1] was 0.514 ± 0.11 kcal/mol; in data set [2], -0.968 ± 0.22 kcal/mol; in data set [3], 0.863 ± 0.056 kcal/mol.
The matching figures for “SAGGSAGGSAGGMALIKLPNGEVQPVKIKAIDPDGNILVEPENSEWQTFSFDGLEIIPLPSAGGSAGGSAGG [r7_823_TrMRF]”: 0.886 ± 0.16 kcal/mol, 0.647 ± 0.041 kcal/mol and 0.955 ± 0.16 kcal/mol.
For “SAGGSAGGSAGGMEFKPGQEIEIVLKDENGRLIVIKAKVKKVDGKLVIEIEEAYELDDLSAGGSAGGSAGGS [r10_744_TrROS_Hall]” the same measures were 2.05 ± 0.26 kcal/mol, 2.34 ± 0.12 kcal/mol and 2 ± 0.14 kcal/mol.
The matching figures for “SAGGSAGGSAGGMEISEKLREYIEKLGKKVSEEEALAIAEEKAKELKEKGIEDVTIVLPVSAGGSAGGSAGG [r7_512_JUSTAS]”: 0.399 ± 0.17 kcal/mol, -0.0343 ± 0.1 kcal/mol and 0.374 ± 0.072 kcal/mol.
For the sequence “SAGGSAGGSAGGMIEKIEVTKLPDGTYKVTITIPLPNGPVITKTITIPPSETVEDAIAKLSAGGSAGGSAGG [r7_54_JUSTAS]”, the “folding stability dG unfold” value in data set [1] came to 2.31 ± 0.046 kcal/mol; in data set [2], 2.54 ± 0.04 kcal/mol; in data set [3], 2.194 ± 0.012 kcal/mol.
For “SAGGSAGGSAGGMIKIKLGDKWVDVAEVKEYPDSIIVYNPKTNTKITISKKNPEDPNILISAGGSAGGSAGG [r7_391_JUSTAS]” the same measures were 1.01 ± 0.21 kcal/mol, 0.463 ± 0.09 kcal/mol and 1.47 ± 0.081 kcal/mol.
With “SAGGSAGGSAGGMINIEGSSFEIVQPDGKPIGSESTGSAEELAKKLPSSYSVLPKGVPPSAGGSAGGSAGGS [r10_310_JUSTAS]”, the “folding stability dG unfold” value in data set [1] came to 2.25 ± 0.27 kcal/mol; in data set [2], 1.67 ± 0.21 kcal/mol; in data set [3], 2.72 ± 0.11 kcal/mol.
For “SAGGSAGGSAGGMIVETLGDSPETVTLVKLPNKPIIRTYDPVTGTWTIYDPDTNKIYEISAGGSAGGSAGGS [r10_434_JUSTAS]”, the “folding stability dG unfold” value in data set [1] turned out to be 1.26 ± 0.098 kcal/mol; in data set [2], 1.39 ± 0.052 kcal/mol; in data set [3], 0.872 ± 0.14 kcal/mol.
On to “SAGGSAGGSAGGMKIKNAEIVEVKEENGKKTLLVKNKETGKYYKITIDDNKITIEEVKVPSAGGSAGGSAGG [r7_940_TrROS_Hall]”, for which the “folding stability dG unfold” value in data set [1] came out at 3.87 ± 0.52 kcal/mol; in data set [2], 2.21 ± 0.32 kcal/mol; in data set [3], 4.13 ± 0.13 kcal/mol.
On to “SAGGSAGGSAGGMKIKTITGDPSTGVYTITFPDGKVETIPMTQEEVEALAKENPGIEITLSAGGSAGGSAGG [r7_175_JUSTAS]”, for which the “folding stability dG unfold” value amounted to 2.46 ± 0.097 kcal/mol in data set [1], 0.899 ± 0.035 kcal/mol in data set [2] and 2.81 ± 0.049 kcal/mol in data set [3].
In the case of “SAGGSAGGSAGGMKITKVEVFERPDGYLVVKMEIELTNENGEKVKLELVFVFKPGEVIESAGGSAGGSAGGS [r10_1183_TrROS_Hall]”, the “folding stability dG unfold” value stood at 4.72 ± 0.31 kcal/mol in data set [1], 3 ± 0.15 kcal/mol in data set [2] and 4.96 ± 0.2 kcal/mol in data set [3].
Take “SAGGSAGGSAGGMKLVTLPDGKTYPFTSLEEFKEALLKETGKPVDLKNPVIYPVPPGLSSAGGSAGGSAGGS [r10_62_JUSTAS]”: the “folding stability dG unfold” value in data set [1] was 0.99 ± 0.22 kcal/mol; in data set [2] it was 0.401 ± 0.14 kcal/mol; in data set [3], 0.959 ± 0.084 kcal/mol.
Take “SAGGSAGGSAGGMKTIVFTTLSPEEAQALADELKAKGVDVEVTYEPVPVTPRPLPLNRLSAGGSAGGSAGGS [r10_361_JUSTAS]”: the “folding stability dG unfold” value in data set [1] came out at 2.57 ± 0.097 kcal/mol; in data set [2], 2.04 ± 0.059 kcal/mol; in data set [3], 3.06 ± 0.063 kcal/mol.
In the case of “SAGGSAGGSAGGMKVIKIEDVEKVKAEAKKNGIKVTYKKENDGEIIAYIEKIPKSIKNKSAGGSAGGSAGGS [r10_218_JUSTAS]”, the “folding stability dG unfold” value was -0.00327 ± 0.23 kcal/mol in data set [1], -0.832 ± 0.34 kcal/mol in data set [2] and 0.449 ± 0.14 kcal/mol in data set [3].
For “SAGGSAGGSAGGMKVIPFESLEEAREYIKANPDENVLLEFPDALLELTKPDDIKKIEKKPSAGGSAGGSAGG [r7_532_JUSTAS]” the same measures were 0.28 ± 0.084 kcal/mol, -0.0919 ± 0.12 kcal/mol and 0.36 ± 0.12 kcal/mol.
“SAGGSAGGSAGGMKVLVIFEDNKIPRVVSEEELKKIPLPFKIIPLGPDPEEAKKILEKSSAGGSAGGSAGGS [r10_419_TrMRF]”: the “folding stability dG unfold” value in data set [1] came out at 0.434 ± 0.27 kcal/mol; in data set [2] it was 0.616 ± 0.13 kcal/mol; in data set [3] it was 0.34 ± 0.39 kcal/mol.
With “SAGGSAGGSAGGMLFHFEIKDPNSDKEYEVLVEKPPSGKVLVTILKDNKEEVKVLPLELFSAGGSAGGSAGG [r11_952_JUSTAS]”, the results for the “folding stability dG unfold” value in data set [1], in data set [2] and in data set [3] were -0.29 ± 0.31 kcal/mol, 0.109 ± 0.17 kcal/mol and -0.393 ± 0.42 kcal/mol, respectively.
Consider “SAGGSAGGSAGGMLILVEVNGEKRLLEADSLEDALAKLPPGATVTRVEIFEVEEVELPESAGGSAGGSAGGS [r10_13_TrROS_Hall]”, for which the “folding stability dG unfold” value in data set [1] was 2.15 ± 0.068 kcal/mol; in data set [2] it was 2.36 ± 0.067 kcal/mol; in data set [3] it was 2 ± 0.059 kcal/mol.
In the case of “SAGGSAGGSAGGMLLSPEEAEKLAAELKAKENVTIKVTPEPSPGKVKVEIIKTKGPKLVSAGGSAGGSAGGS [r10_402_JUSTAS]”, the “folding stability dG unfold” value is 0.418 ± 0.16 kcal/mol in data set [1], -0.0172 ± 0.17 kcal/mol in data set [2] and 0.54 ± 0.061 kcal/mol in data set [3].
The matching figures for “SAGGSAGGSAGGMLTAVFTTPGNVRRLVPFSSEEEARALAEAEGVEVEFLDPAEAARLLSAGGSAGGSAGGS [r10_66_JUSTAS]”: -0.476 ± 0.14 kcal/mol, -0.569 ± 0.17 kcal/mol and -0.497 ± 0.25 kcal/mol.
“SAGGSAGGSAGGMLVRIPRGDKGFVLEIETDGVRTVEEFDGTEEEIREYAEKNGFEILESAGGSAGGSAGGS [r10_506_JUSTAS]”: the “folding stability dG unfold” value amounted to 0.892 ± 0.071 kcal/mol in data set [1], 0.771 ± 0.017 kcal/mol in data set [2] and 0.883 ± 0.051 kcal/mol in data set [3].
The matching figures for “SAGGSAGGSAGGMMKITIEVDGKKIEITLPPGAELKFDKEKKEIYIRNKKTNEILKLKIKSAGGSAGGSAGG [r7_7_TrROS_Hall]”: 2.21 ± 0.11 kcal/mol, 1.9 ± 0.048 kcal/mol and 2.35 ± 0.041 kcal/mol.
As to “SAGGSAGGSAGGMMRIRIKIYNVETGEWKEIEIEVPESVKEITLEIELPEGWRIVEIEVESAGGSAGGSAGG [r7_687_TrROS_Hall]”, the figures for the “folding stability dG unfold” value in data set [1], in data set [2] and in data set [3] were 5.32 ± 0.14 kcal/mol, 5.39 ± 0.52 kcal/mol and 5.22 ± 0.087 kcal/mol, respectively.
The matching figures for “SAGGSAGGSAGGMMVNLKVTREKLPNGKYRVTFTLPNGEEVVVEVESEEEAEAAAKEIAASAGGSAGGSAGG [r11_955_JUSTAS]”: 3.95 ± 0.084 kcal/mol, 3.2 ± 0.053 kcal/mol and 4.23 ± 0.052 kcal/mol.
With “SAGGSAGGSAGGMNPVSKVTKHSGPNGQVTETTTYFDPASGKTTVTYTDLVTGTTSTISTSAGGSAGGSAGG [r11_1063_JUSTAS]”, the figures for the “folding stability dG unfold” value in data set [1], in data set [2] and in data set [3] were -0.823 ± 0.17 kcal/mol, -0.579 ± 0.047 kcal/mol and -1.02 ± 0.41 kcal/mol, respectively.
For “SAGGSAGGSAGGMPADEKVTTSPEIVTLPNGTRVVVTKSTSPDPSVSSTSVTVLPPNVPPSAGGSAGGSAGG [r11_338_JUSTAS]” the same measures were 1.05 ± 0.066 kcal/mol, 0.393 ± 0.029 kcal/mol and 1.38 ± 0.027 kcal/mol.
For “SAGGSAGGSAGGMPIPVTITVSDPATGTTKVVKTVLVTSPEKLEEVISKLPEGKKYTVVESAGGSAGGSAGG [r7_307_JUSTAS]”, the “folding stability dG unfold” value in data set [1] was -0.393 ± 0.29 kcal/mol; in data set [2], -0.415 ± 0.098 kcal/mol; in data set [3], -0.224 ± 0.22 kcal/mol.
For the sequence “SAGGSAGGSAGGMPLTLTSETVTVERDPTSNNVVTTTTTTYKLPNGTLVTVTTTTTSPTTSAGGSAGGSAGG [r7_267_JUSTAS]”, the figures for the “folding stability dG unfold” value in data set [1], in data set [2] and in data set [3] were 2.33 ± 0.06 kcal/mol, 2.38 ± 0.1 kcal/mol and 2.21 ± 0.034 kcal/mol, respectively.
On to “SAGGSAGGSAGGMPTTATITLPGGETLTVPVPVDPSTGTVSEEEIRALVGPEFEFEILGGSAGGSAGGSAGG [r7_492_JUSTAS]”, for which the “folding stability dG unfold” value was determined as 1.24 ± 0.068 kcal/mol in data set [1], 0.779 ± 0.04 kcal/mol in data set [2] and 1.49 ± 0.062 kcal/mol in data set [3].
